Sequences and labels used below:
B1: CD8SP-161-(vL-vH)-Myc-CD28z-T2A-PAC(021715-Z07) (scFv)
chain: DDIQMTQSSSSFSVSLGDRVTITCMASEDIYIRLAWYQQKPGNAPRLLISAATSLETGVPSRFSGSGSGKDYTLSITSLQTEDVGTYYCQQYWSSPWTFGGGTKLEINGGGGSGGGGSGGGGSDVQLQESGPGLVKPSQSLSLTCTVTGYSITSDYTWNWIRQFPGNKLEWMGYITYSGSTSYNPSLKSRNSITRDTSKNQFFLQLNSVTTEDTATYYCARLGRRYTMDYWGQGTSVTVSSTREQKLISEEDLKIEVMYPPPYLDNEKSNGTIIHVKGKHLCPSPLFPGPSKPFWVLVVVGGVLACYSLLVTVAFIIFWVRSKRSRLLHSDYMNMTPRRPGPTRKHYQPYAPPRDFAAYRSRVKFSRSADAPAYQQGQNQLYNELNLGRREEYDVLDKRRGRDPEMGGKPRRKNPQEGLYNELQKDKMAEAYSEIGMKGERRRGKGHDGLYQGLSTATKDTYDALHMQALPPRSSGSGEGRGSLLTCGDVEENPG
B2: CD8SP-175-(vL-vH)-Myc-CD28z-T2A-PAC(031615-Q04) (scFv)
chain: DQIVLTQSPAIMSASPGEKVTISCSASSSVSYMYWYQQKPGSSPKPWIYRTSNLASGVPARFSGSGSGTSYSLTISNMEAEDAAAYYCQQYHSYPTTFGGGTKLEVKGGGGSGGGGSGGGGSEVQLVESGGGLVQPKGSLKLSCAASGFSFNTYAMNWVRQAPGKGLEWIAHIRSKSNNFATYYADSVKDRFSISRDASENILFLQMNNLKTEDTAMYYCVRQGGDFPMDYWGQGTSVTVSSTREQKLISEEDLKIEVMYPPPYLDNEKSNGTIIHVKGKHLCPSPLFPGPSKPFWVLVVVGGVLACYSLLVTVAFIIFWVRSKRSRLLHSDYMNMTPRRPGPTRKHYQPYAPPRDFAAYRSRVKFSRSADAPAYQQGQNQLYNELNLGRREEYDVLDKRRGRDPEMGGKPRRKNPQEGLYNELQKDKMAEAYSEIGMKGERRRGKGHDGLYQGLSTATKDTYDALHMQALPPRSSGSGEGRGSLLTCGDVEENPG
B3: CD8SP-12E10-(vL-vH)-Myc-CD28z-T2A-PAC(031615-S03) (scFv)
chain: DQVQLQQSGPGLVKPSETLSLTCTVSGDSISSYYWSWIRQPPGKGLEWIGYIYYSGSTNYNPSLKSRVTISVDTSKSQFSLKLSSVTAADTAVYYCARGRYFDVWGRGTMVTSSGGGGSGGGGSGGGGSSSYVLTQPPSVSGSPGQSITISCTGTSSDVGGYNYVSWYQQHPGKAPKLMIYEGSKRPSGVSNRFSGSKSGNTASLTISGLQAEDEADYYCSSYTTRSTRVFGGGTKLTVLGAAATREQKLISEEDLKIEVMYPPPYLDNEKSNGTIIHVKGKHLCPSPLFPGPSKPFWVLVVVGGVLACYSLLVTVAFIIFWVRSKRSRLLHSDYMNMTPRRPGPTRKHYQPYAPPRDFAAYRSRVKFSRSADAPAYQQGQNQLYNELNLGRREEYDVLDKRRGRDPEMGGKPRRKNPQEGLYNELQKDKMAEAYSEIGMKGERRRGKGHDGLYQGLSTATKDTYDALHMQALPPRSSGSGEGRGSLLTCGDVEENPG
B4: CD8SP-178-(vL-vH)-Myc-CD28z-T2A-PAC(031615-R04) (scFv)
chain: DIVMTQAAPSIPVTPGESVSISCRSDKSLLHSNGNTYLFWFLQRPGQSPQLLIYRMSNLASGVPDRFSGSGSGTAFTLRISGVEAEDVGVYYCMQHLEYPYTFGGGTKLEIKGGGGSGGGGSGGGGSQVQLQQSGPELVKPGASVKMSCKASGYAFSSSWLNWVRQRPGKGLEWIGRIYPGDGENHYNGKFKGKATLTADKSSSTGYMQLSSLTSEDSAVYFCASYYEGGYWGQGTLITVSATREQKLISEEDLKIEVMYPPPYLDNEKSNGTIIHVKGKHLCPSPLFPGPSKPFWVLVVVGGVLACYSLLVTVAFIIFWVRSKRSRLLHSDYMNMTPRRPGPTRKHYQPYAPPRDFAAYRSRVKFSRSADAPAYQQGQNQLYNELNLGRREEYDVLDKRRGRDPEMGGKPRRKNPQEGLYNELQKDKMAEAYSEIGMKGERRRGKGHDGLYQGLSTATKDTYDALHMQALPPRSSGSGEGRGSLLTCGDVEENPG
B5: CD8SP-AB317-(vL-vH)-Myc-CD28z-T2A-PAC(031615-T04) (scFv)
chain: DIVLTQSPASLAVSLGQSVTISCRASESVEYYGTSLMQWYQQKPGQPPKLLIYGASNVESGVPARFSGSGSGTDFSLNIHPVEEDDIAMYFCQQSRKVPWTFGGGTKLEIKGGGGSGGGGSGGGGSEVKLVESGGGLVKPGGSRKLSCAASGFTFSSYTMSWVRQTPAKRLEWVATISSGSSTIYYADTVKGRFTISRDNAKNTLFLQMTSLRSEDTAMYYCARRWFLDCWGQGTTLTVSSTREQKLISEEDLKIEVMYPPPYLDNEKSNGTIIHVKGKHLCPSPLFPGPSKPFWVLVVVGGVLACYSLLVTVAFIIFWVRSKRSRLLHSDYMNMTPRRPGPTRKHYQPYAPPRDFAAYRSRVKFSRSADAPAYQQGQNQLYNELNLGRREEYDVLDKRRGRDPEMGGKPRRKNPQEGLYNELQKDKMAEAYSEIGMKGERRRGKGHDGLYQGLSTATKDTYDALHMQALPPRSSGSGEGRGSLLTCGDVEENPG

For this assay, the target named is human MPL (thrombopoietin receptor) (human) (UniProt P40238). As to the kind of experiment: cell-based or functional assay.
B1: the GFP induction (%) in CAR-expressing Jurkat-NFAT-EGFP cells, target cell line HEL was 14%; the GFP induction (%) in CAR-expressing Jurkat-NFAT-EGFP cells, target cell line RAJI-Mpl was 11%; the GFP induction (%) in CAR-expressing Jurkat-NFAT-EGFP cells, target cell line RAJI-vector stood at 5%.

For B2, the GFP induction (%) in CAR-expressing Jurkat-NFAT-EGFP cells, target cell line HEL is 33%; the GFP induction (%) in CAR-expressing Jurkat-NFAT-EGFP cells, target cell line RAJI-Mpl is 18%; the GFP induction (%) in CAR-expressing Jurkat-NFAT-EGFP cells, target cell line RAJI-vector stood at 11%.

Molecule B3 registered a GFP induction (%) in CAR-expressing Jurkat-NFAT-EGFP cells, target cell line HEL of 5%; a GFP induction (%) in CAR-expressing Jurkat-NFAT-EGFP cells, target cell line RAJI-Mpl of 6%; a GFP induction (%) in CAR-expressing Jurkat-NFAT-EGFP cells, target cell line RAJI-vector of 4%.

Molecule B4 displayed a GFP induction (%) in CAR-expressing Jurkat-NFAT-EGFP cells, target cell line HEL of 2%; a GFP induction (%) in CAR-expressing Jurkat-NFAT-EGFP cells, target cell line RAJI-Mpl of 3%; a GFP induction (%) in CAR-expressing Jurkat-NFAT-EGFP cells, target cell line RAJI-vector of 4%.

Molecule B5 had a GFP induction (%) in CAR-expressing Jurkat-NFAT-EGFP cells, target cell line HEL of 1%; a GFP induction (%) in CAR-expressing Jurkat-NFAT-EGFP cells, target cell line RAJI-Mpl of 6%; a GFP induction (%) in CAR-expressing Jurkat-NFAT-EGFP cells, target cell line RAJI-vector of 3%.

Source of the values: US20240166755A1, “CHIMERIC ANTIGEN RECEPTORS TARGETING CANCER” (University of Southern California, priority 2016, published 2024).
